Laboratory results from patent publication US8202696B2, “Means for use in treating diseases correlated with or caused by non-physiological levels of microtubule-associated PP2Ac” (Max-Planck-Gessellschaft zur Forderung der Wissenschaften …, priority 2002, dated 2012).
“Also recorded” adds a separate entry of the source.

Assays:
Type in all cases: cell-based
PP2A [1] = assay: Cytosolic PP2A in 293 cells expressing MID1-V5, Western blot; settings: 293 cells expressing MID1-V5 versus control cells
Method: Immunoprecipitation, western blotting and immunofluorescence. For COS7 cells, we lysed in IP1 buffer 8×10^6 cells transfected with pBudCE4 vector carrying the respective cDNAs. After preclearing the lysate with 50 μl protein A-agarose (slurry), we incubated supernatants with 2 μg anti-V5 overnight at 4° C. and then for 2 h with 75 μl (slurry) protein A-agarose. After three washes in IP1 buffer, we eluted the proteins with 1× Laemmli buffer at 95° C. MID1-V5 expression was optimal 48 h after doxycyclin removal from 293 tet-off cell lines. We then lysed cells in IP1 buffer and carried out immunoprecipitation with 2 μg anti-V5. We boiled proteins in 1×SDS-PAGE buffer, separated them on 10% and 12% SDS gels, blotted on PVDF membranes (Roche) and blocked and incubated with the respective primary antibody according to the manufacturer's instructions.
If so, increased MID1 expression should coincide with a decrease of cytosolic PP2A. To test this hypothesis, we analyzed lysates containing equal amounts of protein from 293 cells expressing MID1-V5 (FIG. 4a, lane1) and control cells (FIG. 4a, lane 3) by western blotting with a polyclonal antibody that detects the C subunit of PP2A.

Gli3 [2] = assay: Localization of GFP-GLI3 in cultured U373MG cells; settings: 24 hours after transfection, 100 cells counted
Method: COS7-HELA- and U373MG-cells were transfected using PolyFect Transfection Reagent (Qiagen, cat. no. 301107) according to the manufacturer's instructions. Gli3 cDNA was cloned into pEGFP-C1 and pEGFP-N3 vectors (Clontech) respectively. 100 transfected cells per experiment (Gli3-GFP, GFP-Gli3, Gli3-GFP+myc-MID1, GFP-Gli3+myc-MID1, Gli3-GFP+myc-BBox1, GFP-Gli3+myc-BBox1) were counted and analysed for Gli3 localization. Experiments were repeated twice. […] PCMV-Tag3 vector from Stratagene was used for myc-MID1 and myc-BBox1 overexpression.

PP2A [3] = assay: Ubiquitin-dependent regulation of PP2A in embryonic fibroblasts, Western blot; settings: OS-derived cells
Method: Tissue culture. We obtained embryonic fibroblasts from the Max-Planck Institute for Cell Biology (Ladenburg, Germany) and purchased COS7 cells from the American Type Culture Collection (ATCC). Establishment of an embryonic fibroblast cell line from an OS-affected fetus has been described previously^4. We transfected COS7 cells following the Clontech protocol using LipofectACE. Expression was optimal 24-48 h after transfection. […] We determined integration copy number by Southern blot analysis. […]
For proteasome inhibition, we incubated embryonic fibroblasts with varying concentrations (10-50 μM) of LLnL (Sigma) for 2 h or with 10 μM of lactacystin (Sigma) for 5 h. […] Protein concentrations were determined with a Bradford assay. […]
For embryonic fibroblasts, we lysed 8×10^6 cells in IP1 buffer. […] We carried out densitometric quantification using the PCB computer program.
To obtain direct evidence for ubiquitin-dependent regulation of cytosolic PP2A, we analyzed amounts of cytosolic PP2A in embryonic fibroblasts, previously shown to contain large amounts of endogenous MID1 (ref. 2), after treatment with the proteasome inhibitor LLnL (FIG. 4b).

patched gene = assay: Patched-specific semiquantitative RT-PCR of HeLa cells; settings: compared to mock-transfected cells
Method: One of the most important targets of the Gli3 transcription factor is the patched gene. In order to analyse HeLa cells for Gli3 activity after treatment with the different molecules, semiquantitative RT-PCR of cells overexpressing the B-Box1 and the α4 protein was carried out (FIG. 13). HeLa cells have previously been tested for Gli3-, Gli1 (another target of the Gli3 transcription factor) and patched-expression.

Gli3 [4] = assay: Localization of overexpressed GFP-tagged Gli3 in HeLa cells; settings: GFP-tagged Gli3-overexpressing HeLa cells
Method: 1×10^5 HELA cells per well of a 6-well plate were transfected with Qiagen Polyfect transfection reagent according to the manufacturer's instructions. The ratio of the amount of DNA to the amount of polyfect transfection reagent was 3 μg DNA/10 μl Polyfect. Constructs used for expression in HELA were the following: GFP-GLI3 (aa 18-1549), GLI3-GFP (aa 1-1522), MYC-GLI3 (aa 18-1596), FLAG-GLI3 (aa18-1596), MYC-B-BOX1 (aa 110-167 of the MID1 protein), ALPHA4-V5 (aa 1-339). 24 h after transfection immunofluorescence was performed. GFP-constructs were treated as described in Schweiger et al., 1999. Immunofluorescence with MYC-tagged and FLAG-tagged constructs was done according to Trockenbacher et al., 2001. FLAG-tagged constructs were detected with anti-FLAG-antibody diluted 1:500, the secondary antibody FITC-antimouse was diluted 1:1000. For MYC-tagged constructs anti-MYC-antibody 1:300 and CY3-antirabbit 1:1000 were used. […]
Overexpressed Gli3 is predominantly localized in the nucleus (FIG. 10, top left).

B1: MID1: RING-finger protein that interacts with the α4 subunit of microtubule associated PP2Ac; overexpressed from cDNA (protein)
chain: METLESELTCPICLELFEDPLLLPCAHSLCFNCAHRILVSHCATNESVESITAFQCPTCRHVITLSQRGLDGLKRNVTLQNIIDRFQKASVSGPNSPSETRRERAFDANTMTSAEKVLCQFCDQDPAQDAVKTCVTCEVSYCDECLKATHPNKKPFTGHRLIEPIPDSHIRGLMCLEHEDEKVNMYCVTDDQLICALCKLVGRHRDHQVAALSERYDKLKQNLESNLTNLIKRNTELETLLAKLIQTCQHVEVNASRQEAKLTEECDLLIEIIQQRRQIIGTKIKEGKVMRLRKLAQQIANCKQCIERSASLISQAEHSLKENDHARFLQTAKNITERVSMATASSQVLIPEINLNDTFDTFALDFSREKKLLECLDYLTAPNPPTIREELCTASYDTITVHWTSDDEFSVVSYELQYTIFTGQANVVSLCNSADSWMIVPNIKQNHYTVHGLQSGTKYIFMVKAINQAGSRSSEPGKLKTNSQPFKLDPKSAHRKLKVSHDNLTVERDESSSKKSHTPERFTSQGSYGVAGNVFIDSGRHYWEVVISGSTWYAIGLAYKSAPKHEWIGKNSASWALCRCNNNWVVRHNSKEIPIEPAPHLRRVGILLDYDNGSIAFYDALNSIHLYTFDVAFAQPVCPTFTVWNKCLTIITGLPIPDHLDCTEQLP
modifications: left off: large carriers
notes: overexpressed from cDNA
Cytosolic phosphatase 2A level (PP2A [1]): downregulated
GFP-GLI3 localization (Gli3 [2]): No change
PP2Ac amount after transfection (PP2A [3]): normalizes the amount of PP2Ac

B2: α4: regulatory subunit of PP2A encoded by human IGBP1, overexpressed (protein, UniProt P78318 2-339, looked up)
Immunoglobulin-binding …: AAEDELQLPRLPELFETGRQLLDEVEVATEPAGSRIVQEKVFKGLDLLEKAAEMLSQLDLFSRNEDLEEIASTDLKYLLVPAFQGALTMKQVNPSKRLDHLQRAREHFINYLTQCHCYHVAEFELPKTMNNSAENHTANSSMAYPSLVAMASQRQAKIQRYKQKKELEHRLSAMKSAVESGQADDERVREYYLLHLQRWIDISLEEIESIDQEIKILRERDSSREASTSNSSRQERPPVKPFILTRNMAQAKVFGAGYPSLPTMTVSDWYEQHRKYGALPDQGIAKAAPEEFRKAAQQQEEQEEKEEEDDEQTLHRAREWDDWKDTHPRGYGNRQNMG
modifications: V5 tag
notes: regulatory subunit of PP2A encoded by human IGBP1, overexpressed
patched message (patched gene): increased amount of PCR-product; also recorded: increase of the patched message
Gli3 localization (Gli3 [4]): significant release of GFP-Gli3 to the nucleus
